Assay results published in publication PMC7243271.
Like-named read-outs stand apart in the source and are kept apart here.

Key:
Assay in all cases: SEC-MALS
[1] = target: Nup358-KLC2-fusion protein (human | mouse) (UniProt P49792)
[2] = target: Nup358-min (residues 2147–2240 of human Nup358) (human) (UniProt P49792)
[3] = target: Nup358/W2224A/D2225A-KLC2-fusion protein (human | mouse) (UniProt P49792)
[4] = target: Nup358-KLC2-fusion protein (human | mouse) (UniProt P49792); remark: listed apart in the source

Measured: stoichiometry N

BicD2-CTD (residues 715–804 of human BicD2) (domain or fragment)
1: all assays above
